Consider four molecules from patent US20180369355A1 (TEXAS A AND M UNIVERSITY SYSTEM, published 2018).

Sequences and labels used below:
T1: Fg D-fragment (UniProt P02671 130-216; P02675 164-491; P02679 114-437)
T1 construct: domain: D-fragment; also called D-domain
T1 sequence 1: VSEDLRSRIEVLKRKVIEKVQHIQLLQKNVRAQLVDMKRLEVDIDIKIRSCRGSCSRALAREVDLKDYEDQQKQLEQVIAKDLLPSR
T1 sequence 2: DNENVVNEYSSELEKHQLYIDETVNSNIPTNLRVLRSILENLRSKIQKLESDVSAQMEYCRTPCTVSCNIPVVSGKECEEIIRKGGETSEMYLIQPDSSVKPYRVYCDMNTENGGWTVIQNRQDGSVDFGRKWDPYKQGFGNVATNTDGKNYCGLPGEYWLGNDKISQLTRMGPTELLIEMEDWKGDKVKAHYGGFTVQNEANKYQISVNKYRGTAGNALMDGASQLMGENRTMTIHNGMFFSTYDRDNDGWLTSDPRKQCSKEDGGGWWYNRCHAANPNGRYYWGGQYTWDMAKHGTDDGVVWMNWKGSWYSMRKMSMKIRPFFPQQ
T1 sequence 3: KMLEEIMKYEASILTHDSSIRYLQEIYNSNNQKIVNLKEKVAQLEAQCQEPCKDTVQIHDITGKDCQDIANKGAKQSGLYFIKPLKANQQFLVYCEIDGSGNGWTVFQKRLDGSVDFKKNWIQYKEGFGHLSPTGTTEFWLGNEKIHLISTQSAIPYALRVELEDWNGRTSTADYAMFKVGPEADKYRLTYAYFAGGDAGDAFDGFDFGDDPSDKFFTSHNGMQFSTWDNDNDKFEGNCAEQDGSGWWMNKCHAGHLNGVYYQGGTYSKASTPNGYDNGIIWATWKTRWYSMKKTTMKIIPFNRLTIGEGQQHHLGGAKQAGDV

T2: human fibrinogen (human, UniProt P02671 20-629; P02675 31-491; P02679 27-437)
T2 construct: also called Fg; intact Fg
T2 sequence 1: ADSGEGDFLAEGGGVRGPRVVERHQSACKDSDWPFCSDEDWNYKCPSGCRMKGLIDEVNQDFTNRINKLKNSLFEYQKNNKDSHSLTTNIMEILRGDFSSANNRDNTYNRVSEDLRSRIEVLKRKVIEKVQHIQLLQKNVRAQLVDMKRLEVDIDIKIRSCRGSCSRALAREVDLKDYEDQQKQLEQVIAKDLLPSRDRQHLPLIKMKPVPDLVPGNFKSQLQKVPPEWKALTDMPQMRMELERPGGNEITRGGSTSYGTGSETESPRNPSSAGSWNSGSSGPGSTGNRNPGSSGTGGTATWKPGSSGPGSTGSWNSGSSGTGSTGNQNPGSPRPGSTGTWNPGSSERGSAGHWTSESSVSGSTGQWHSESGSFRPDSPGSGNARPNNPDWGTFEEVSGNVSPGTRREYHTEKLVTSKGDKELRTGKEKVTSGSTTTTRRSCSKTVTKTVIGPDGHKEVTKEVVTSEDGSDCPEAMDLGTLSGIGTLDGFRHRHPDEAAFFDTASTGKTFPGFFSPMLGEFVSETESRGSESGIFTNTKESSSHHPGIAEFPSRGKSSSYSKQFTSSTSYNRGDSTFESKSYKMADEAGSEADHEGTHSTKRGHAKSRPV
T2 sequence 2: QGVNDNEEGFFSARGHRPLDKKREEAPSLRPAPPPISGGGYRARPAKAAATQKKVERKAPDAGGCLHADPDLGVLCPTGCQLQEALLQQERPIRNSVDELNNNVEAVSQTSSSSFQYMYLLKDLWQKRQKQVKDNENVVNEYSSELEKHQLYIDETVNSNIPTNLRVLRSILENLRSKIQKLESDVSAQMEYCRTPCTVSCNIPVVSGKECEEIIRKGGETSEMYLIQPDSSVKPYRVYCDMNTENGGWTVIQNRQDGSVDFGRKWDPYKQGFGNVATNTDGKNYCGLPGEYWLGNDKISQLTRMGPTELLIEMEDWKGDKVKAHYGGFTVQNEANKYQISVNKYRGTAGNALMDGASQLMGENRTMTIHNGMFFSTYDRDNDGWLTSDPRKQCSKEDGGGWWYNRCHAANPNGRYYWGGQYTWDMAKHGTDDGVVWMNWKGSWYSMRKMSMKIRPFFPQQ
T2 sequence 3: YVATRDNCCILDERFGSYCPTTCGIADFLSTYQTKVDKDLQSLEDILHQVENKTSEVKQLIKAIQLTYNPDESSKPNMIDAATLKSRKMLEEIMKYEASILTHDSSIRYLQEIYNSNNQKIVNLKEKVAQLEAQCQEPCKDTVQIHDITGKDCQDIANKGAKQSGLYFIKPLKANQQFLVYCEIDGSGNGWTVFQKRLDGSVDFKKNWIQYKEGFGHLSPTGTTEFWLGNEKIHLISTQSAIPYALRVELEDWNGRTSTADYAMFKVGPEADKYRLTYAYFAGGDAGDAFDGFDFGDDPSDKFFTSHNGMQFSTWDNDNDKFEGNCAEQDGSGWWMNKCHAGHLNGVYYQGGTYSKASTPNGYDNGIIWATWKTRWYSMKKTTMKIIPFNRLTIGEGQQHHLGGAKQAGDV

T3: ClfACC (S. aureus, UniProt Q53653 229-545, engineered disulfide bond between C327 and C541)
T3 construct: also called disulfide bond-closed ClfACC; closed form of ClfA N2N3
T3 sequence: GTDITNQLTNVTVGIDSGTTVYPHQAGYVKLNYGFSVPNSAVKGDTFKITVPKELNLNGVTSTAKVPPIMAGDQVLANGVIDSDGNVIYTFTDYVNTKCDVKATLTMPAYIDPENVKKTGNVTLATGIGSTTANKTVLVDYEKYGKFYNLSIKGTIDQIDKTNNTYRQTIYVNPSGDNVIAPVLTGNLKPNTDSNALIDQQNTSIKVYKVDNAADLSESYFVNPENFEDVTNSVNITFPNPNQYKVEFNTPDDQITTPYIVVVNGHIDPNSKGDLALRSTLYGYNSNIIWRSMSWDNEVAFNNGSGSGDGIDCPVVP

B1: ClfA370-559 (other)
chain: EKYGKFYNLSIKGTIDQIDKTNNTYRQTIYVNPSGDNVIAPVLTGNLKPNTDSNALIDQQNTSIKVYKVDNAADLSESYFVNPENFEDVTNSVNITFPNPNQYKVEFNTPDDQITTPYIVVVNGHIDPNSKGDLALRSTLYGYNSNIIWRSMSWDNEVAFNNGSGSGDGIDKPVVPEQPDEPGEIEPIPE
notes: also called recombinant form of N3
B2: synthetic C-terminal γ-chain peptide (peptide)
peptide: GEGQQHHLGGAKQAGDV
notes: domain: C-terminal γ-chain peptide; also called Fg γ-peptide; synthetic Fg γ-peptide
B3: Fg γ-peptide P16 (peptide)
peptide: GEGQQHHLGGAKQAGAV
notes: domain: γ-peptide; Position 410 probably counts on the mature γ-chain; also called P16 peptide; Fg-γ P16 peptide
B4: ClfAPWY (other)
chain: VAADAPAAGTDITNQLTNVTVGIDSGTTVYPHQAGYVKLNYGFSVPNSAVKGDTFKITVPKELNLNGVTSTAKVPPIMAGDQVLANGVIDSDGNVIYTFTDYVNTKDDVKATLTMPAYIDPENVKKTGNVTLATGIGSTTANKTVLVDYEKYGKFYNLSIKGTIDQIDKTNNTYRQTIYVNPSGDNVIAPVLTGNLKPNTDSNALIDQQNTSIKVYKVDNAADLSESYFVNPENFEDVTNSVNITFANPNQYKVEFNTPDDQITTPYIVVVNGHIDPNSKGDLALRSTLYGANSNIIARSMSWDNEVAFNNGSGSGDGIDKPVVPEQPDEPGEIEPIPE
notes: also called triple mutant

The target of test [1] is T1, Fg D-fragment. As to the kind of experiment: SPR (Biacore), drawn table Ligand/analyte: Fg D-fragment immobilized, ClfA N3 domain (ClfA370-559) as analyte. Background: SPR reads the build-up and loss of mass on a sensor chip optically.
Test [2] deals with T2, human fibrinogen. As to the kind of experiment: SPR; immobilized Fg against γ-peptide.
Test [3] deals with T2, human fibrinogen. Briefly: SPR (Biacore), drawn table Ligand/analyte: fibrinogen immobilized, ClfA N3 domain (ClfA370-559) as analyte.
For test [4], the target named is T1, Fg D-fragment. Briefly: SPR; immobilized Fg D-fragment against γ-peptide.
The target of test [5] is T3, ClfACC. Briefly: ITC; peptide titrated into a cell containing ClfACC; the unit is missing in the print; γ-chain peptide titrated into ClfACC.
The target in the test “ClfAPWY” is B4. Briefly: ITC; 0.5 mM P16 injected into 30 µM ClfAPWY, 30 °C; ITC, P16 peptide.
Test [6] concerns the target T3, ClfACC. Briefly: ITC, peptide titrated into ClfACC (paragraph 56 gives this KD as '9' without a unit and calls the peptide a synthetic C-terminal γ-chain peptide; the sheet names it P16).
For test [7], the target named is T2, human fibrinogen. Briefly: SPR; immobilized Fg; estimated; SPR, Fg, estimated, data not shown.
Test [8] has as its target T1, Fg D-fragment. Briefly: SPR; immobilized D-fragment; estimated; SPR, D-fragment, estimated, data not shown.
In test [9] the target is B3. As to the kind of experiment: ITC, 0.5 mM P16 peptide injected into 30 µM ClfAPWY; OneSites fit box, unit not given.
The target in test [10] is B3. As to the kind of experiment: ITC, 0.5 mM P16 peptide injected into 30 µM ClfAPWY; OneSites fit box. A general note: In ITC the heat of successive injections is recorded.

As a reminder, the Kd is the concentration at which binding is half-saturated. B1: the Kd in the test with Fg D-fragment [1] was found to be 6.9 µM; in the test with human fibrinogen [3], 5.9 µM. Besides, the “fold lower KD than for the γ-peptide” value in the test with human fibrinogen [2] and with Fg D-fragment [4] was around 10 fold each time.

On to B2, for which the Kd with ClfACC [5] is 9 µM.

In the case of B3, the Kd with ClfAPWY is around 5.8 µM; with ClfACC [6] it was 9 µM.

As for B4, the Kd with human fibrinogen [7] was 10 µM. Also, the Kd in the test with Fg D-fragment [8] was 17 µM. In the test with Fg γ-peptide P16 [9], the ΔH was -6790 and the ΔS was 1.59. The same molecule returned a N with Fg γ-peptide P16 [10] of 1.23.
